± gives the uncertainty stated by the source.

A short description of the data set: self-splicing fitness, log relative to wild type (ln ratio); higher = more splicing; Tetrahymena group I intron in knt gene, E. coli kanamycin selection, DiMSum; sequences stand for … in CUCUCU…GGAGGGAAAAGUUAUCAGGCAUGCACCUGGUAGCUAGUCUUUAAACCAAUAGAUUGCAUCGGUUUAAAAGGCAAGACCGUCAAAUUGCGGGAAAGGGGUCAACAGCCGUUCAGUACCAAGUCUCAGGGGAAACUUUGAGAUGGCCUUGCAAAGGGUAUGGUAAUAAGCUGACGGACAUGGUCCUAACCACGCAGCCAAGUCCUAAGUCAACAGAUCUUCUGUUGAUAUGGAUGCAGUUCACAGACUAAAUGUCGGUCGGGGAAGAUGUAUUCUUCUCAUAAGAUAUAGUCGGACCUCUCCUUAAUGGGAGCUAGCGGAUGAAGUGAUGCAACACUGGAGCCGCUGGGAACUAAUUUGUAUGCGAAAGUAUAUUGAUUAGUUUUGGAGUACUCGUGGUCG
An outline of the steps: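 Fitness was computed with DiMSum as the error-weighted combination of replicate fold changes, kanamycin versus none, each normalised to wild type. The library randomised all eight intron nucleotides of the P1ex region, with the intron placed in the knt kanamycin-resistance gene on pET-22b(+) in E. coli BL21(DE3). Six replicate transformations were grown overnight at 37°C or 30°C on LB agar with or without 25 μg/mL kanamycin, plus 100 μg/mL carbenicillin, 50 μM IPTG and 0.2% rhamnose. Pooled colonies were amplicon-sequenced on an Illumina HiSeq 2500.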

Regarding AGGCAGCAAUAUUACGGCGC, the “self-splicing fitness (ln)” value was -1.13 ± 0.11 (30 °C) and 0.292 ± 0.18 (37 °C).

Take GUCCAGCAAUAUUACGAUAG: the “self-splicing fitness (ln)” value was -3.53 ± 0.14 (30 °C) and -2.89 ± 0.17 (37 °C).

Turning to CCAUAGCAAUAUUACGCGGA, the “self-splicing fitness (ln)” value runs as follows: (30 °C) -2.87 ± 0.16; (37 °C) -2.26 ± 0.17.

AAUGAGCAAUAUUACGAGCA: the “self-splicing fitness (ln)” value reads like this: (30 °C) -3.45 ± 0.32; (37 °C) -2.35 ± 0.29.

As to CCGAAGCAAUAUUACGUGCU, the “self-splicing fitness (ln)” value is -4 ± 0.24 (30 °C) and -2.88 ± 0.28 (37 °C).

GGAUAGCAAUAUUACGGUAC: the “self-splicing fitness (ln)” value was -1.59 ± 0.14 (30 °C) and 0.179 ± 0.13 (37 °C).

Turning to CAUCAGCAAUAUUACGCGCG, the “self-splicing fitness (ln)” value reads like this: (30 °C) 0.0702 ± 0.07; (37 °C) 0.438 ± 0.084.

Regarding UUUUAGCAAUAUUACGGCGC, the “self-splicing fitness (ln)” value was -1.12 ± 0.29 (30 °C) and -0.567 ± 0.34 (37 °C).

CUUCAGCAAUAUUACGCAUU: the “self-splicing fitness (ln)” value reads like this: (30 °C) -3.11 ± 0.19; (37 °C) -2.28 ± 0.2.

On to CUCCAGCAAUAUUACGGCAG, for which the “self-splicing fitness (ln)” value was -4.58 ± 0.21 (30 °C) and -1.75 ± 0.15 (37 °C).

For the sequence GGUGAGCAAUAUUACGGUAG, the “self-splicing fitness (ln)” value reads like this: (30 °C) -2.67 ± 0.22; (37 °C) -2.59 ± 0.33.

Turning to GGGUAGCAAUAUUACGUAUU, the “self-splicing fitness (ln)” value was -0.286 ± 0.07 (30 °C) and -1.06 ± 0.11 (37 °C).

Regarding UCGUAGCAAUAUUACGUCCA, the “self-splicing fitness (ln)” value was -0.914 ± 0.16 (30 °C) and -0.15 ± 0.17 (37 °C).

With UCUAAGCAAUAUUACGUUGC, the “self-splicing fitness (ln)” value by setting is: (30 °C) -3.92 ± 0.34; (37 °C) -2.81 ± 0.29.

For AGCUAGCAAUAUUACGCAGU, the “self-splicing fitness (ln)” value reads like this: (30 °C) -2.97 ± 0.19; (37 °C) -2.02 ± 0.26.

As to GUUUAGCAAUAUUACGGGUC, the “self-splicing fitness (ln)” value is -3.6 ± 0.47 (30 °C) and -1.73 ± 0.2 (37 °C).

For the sequence GUUUAGCAAUAUUACGGCAU, the “self-splicing fitness (ln)” value runs as follows: (30 °C) 0.0778 ± 0.14; (37 °C) -0.182 ± 0.14.

As to AGAUAGCAAUAUUACGCGGA, the “self-splicing fitness (ln)” value is -2.98 ± 0.13 (30 °C) and -0.482 ± 0.093 (37 °C).

Take CUAAAGCAAUAUUACGCGGA: the “self-splicing fitness (ln)” value reads like this: (30 °C) -3.85 ± 0.3; (37 °C) -3.62 ± 0.24.

As for CUCAAGCAAUAUUACGGUGU, the “self-splicing fitness (ln)” value (30 °C) was -3.3 ± 0.12 and the “self-splicing fitness (ln)” value (37 °C) is -1.31 ± 0.13.

As for UUAUAGCAAUAUUACGGGUC, the “self-splicing fitness (ln)” value is, setting by setting: (30 °C) -2.3 ± 0.32; (37 °C) -2.47 ± 0.41.

For AAUAAGCAAUAUUACGCUGA, the “self-splicing fitness (ln)” value (30 °C) was -1.81 ± 0.17 and the “self-splicing fitness (ln)” value (37 °C) is -1.63 ± 0.18.

In the case of UCAAAGCAAUAUUACGAUGC, the “self-splicing fitness (ln)” value is, setting by setting: (30 °C) -2.78 ± 0.15; (37 °C) -0.924 ± 0.15.

Take CAUCAGCAAUAUUACGUUUG: the “self-splicing fitness (ln)” value is -1.57 ± 0.064 (30 °C) and -0.71 ± 0.089 (37 °C).

Turning to CUGUAGCAAUAUUACGUCCG, the “self-splicing fitness (ln)” value runs as follows: (30 °C) -0.133 ± 0.08; (37 °C) 0.0507 ± 0.11.

As for CCGGAGCAAUAUUACGCCCG, the “self-splicing fitness (ln)” value (30 °C) is -1.86 ± 0.41.

Regarding CCACAGCAAUAUUACGAACC, the “self-splicing fitness (ln)” value by setting is: (30 °C) -3.86 ± 0.32; (37 °C) -2.46 ± 0.35.

In the case of UCCCAGCAAUAUUACGGUUG, the “self-splicing fitness (ln)” value (30 °C) was -2.97 ± 0.17 and the “self-splicing fitness (ln)” value (37 °C) was -1.79 ± 0.15.

Turning to AGCCAGCAAUAUUACGAGGU, the “self-splicing fitness (ln)” value (30 °C) was -3.51 ± 0.23 and the “self-splicing fitness (ln)” value (37 °C) is -1.93 ± 0.21.

In the case of CUACAGCAAUAUUACGCAUG, the “self-splicing fitness (ln)” value (30 °C) was -1.48 ± 0.086 and the “self-splicing fitness (ln)” value (37 °C) was -1.44 ± 0.079.

Regarding AAACAGCAAUAUUACGUGCC, the “self-splicing fitness (ln)” value (30 °C) was -2 ± 0.1 and the “self-splicing fitness (ln)” value (37 °C) is -1.31 ± 0.13.

Turning to GUGCAGCAAUAUUACGUGAG, the “self-splicing fitness (ln)” value was -0.173 ± 0.054 (30 °C) and -0.117 ± 0.084 (37 °C).

On to GUCUAGCAAUAUUACGGACC, for which the “self-splicing fitness (ln)” value (30 °C) was -3.95 ± 0.46 and the “self-splicing fitness (ln)” value (37 °C) is -0.565 ± 0.24.

Take CGUCAGCAAUAUUACGCGUA: the “self-splicing fitness (ln)” value runs as follows: (30 °C) -1.93 ± 0.18; (37 °C) -0.985 ± 0.12.

For AGCUAGCAAUAUUACGUUAA, the “self-splicing fitness (ln)” value is -2.49 ± 0.21 (30 °C) and -1.36 ± 0.14 (37 °C).

Consider GCUGAGCAAUAUUACGGCGG, for which the “self-splicing fitness (ln)” value (30 °C) is -1.79 ± 0.22.

Take CAAAAGCAAUAUUACGUCAA: the “self-splicing fitness (ln)” value is -3.34 ± 0.11 (30 °C) and -2.86 ± 0.12 (37 °C).

As to UGUGAGCAAUAUUACGCCCU, the “self-splicing fitness (ln)” value is -1.54 ± 0.44 (30 °C) and -0.113 ± 0.36 (37 °C).

Source of the values: the supplement of paper PMC7877785.
